According to the supplement of paper PMC11780869:

Test system: Bacillus subtilis
Assay: cleaved RNA product abundance (RNA/gDNA barcode ratio) relative to median wild-type variant (ratio to wild type); higher = more accumulation of the downstream cleavage product
Details: cleavage site: cggR-gapA (positions -7 to +36 mutated)
Experimental: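 MPRA in B. subtilis. Mutagenized RNase Y cleavage-site regions (9% mutation rate) were inserted into a barcoded reporter mRNA (truncated aprE or tetM). Cells were grown in LB at 37°C to OD600 0.3. The cleaved RNA isoform was gel-purified and its barcodes counted; the RNA:gDNA barcode ratio was normalised to the median wild-type variant, and the median over barcodes is reported per variant. The printed sequence is the variable window only; the reporter flanks are not printed.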

[1] = experiment (reporter, strain, medium): exp 4a: truncated aprE reporter, strain BJT201 with 2% xylose (RNase J1 expressed)
[2] = experiment (reporter, strain, medium): exp 2b: truncated aprE reporter, strain BJT200

Sequence | cleaved RNA product abundance [1] | cleaved RNA product abundance [2] | cleaved RNA product abundance (experiment (reporter, strain, medium): exp 6: tetM reporter, strain 168)
ACAGACGAAGGAGCCGCAAAGAAATTATTAAGGGATGAATAATCCATCAAGATAAATATCTCTCACTTATTTAAA | 0.118 |  | 
ACAGACGAAGGAGCCGCAAAGAAATTATTAAGGGATGAATAATCCATCAATATAAATATCTCTCACTTATTTAAA | 0.201 | 0.163 | 
ACAGACGAAGGAGCCGCAAAGAAATTATTAAGGGATGAATAATCCCACAATATAAATATCTCTCACTTATTTAAA | 0.298 | 0.195 | 
ACAGACGAAGGAGCCGCAAAGAAATTATTAAGGGATGAATAATCCCCCAATATAAATATCTCTCACTTATTTAAA | 0.465 |  | 
ACAGACGAAGGAGCCGCAAAGAAATTATTAAGGGATGAATAATCCCGCAATATAAATATCTCTCACTTATTTAAA | 0.214 |  | 
ACAGACGAAGGAGCCGCAAAGAAATTATTAAGGGATGAATAATCCCTAAATATAAATATCTCTCACTTATTTAAA | 0.667 | 0.458 | 
ACAGACGAAGGAGCCGCAAAGAAATTATTAAGGGATGAATAATCCCTCAAAATAAATATCTCTCACTTATTTAAA | 0.365 | 0.257 | 
ACAGACGAAGGAGCCGCAAAGAAATTATTAAGGGATGAATAATCCCTCAACATAAATATCTCTCACTTATTTAAA | 0.234 |  | 
ACAGACGAAGGAGCCGCAAAGAAATTATTAAGGGATGAATAATCCCTCAAGATAAATATCTCTCACTTATTTAAA | 0.189 | 0.188 | 
ACAGACGAAGGAGCCGCAAAGAAATTATTAAGGGATGAATAATCCCTCAATAAAAATATCTCTCACTTATTTAAA |  | 0.178 | 
ACAGACGAAGGAGCCGCAAAGAAATTATTAAGGGATGAATAATCCCTCAATATAAAAATCTCTCACTTATTTAAA | 0.568 |  | 
ACAGACGAAGGAGCCGCAAAGAAATTATTAAGGGATGAATAATCCCTCAATATAAATAGCTCTCACTTATTTAAA | 0.435 |  | 
ACAGACGAAGGAGCCGCAAAGAAATTATTAAGGGATGAATAATCCCTCAATATAAATATATCTCACTTATTTAAA | 1.19 |  | 
ACAGACGAAGGAGCCGCAAAGAAATTATTAAGGGATGAATAATCCCTCAATATAAATATCTCTCACTTATTTAAA | 0.783 | 0.826 | 0.759
ACAGACGAAGGAGCCGCAAAGAAATTATTAAGGGATGAATAATCCCTCAATATAAATCTCTCTCACTTATTTAAA | 0.66 |  | 
ACAGACGAAGGAGCCGCAAAGAAATTATTAAGGGATGAATAATCCCTCAATATAAATTTCTCTCACTTATTTAAA | 0.361 |  | 
ACAGACGAAGGAGCCGCAAAGAAATTATTAAGGGATGAATAATCCCTCAATATAACTATCTCTCACTTATTTAAA | 0.325 |  | 
ACAGACGAAGGAGCCGCAAAGAAATTATTAAGGGATGAATAATCCCTCAATATACATATCTCTCACTTATTTAAA | 0.46 |  | 
ACAGACGAAGGAGCCGCAAAGAAATTATTAAGGGATGAATAATCCCTCAATATAGATATCTCTCACTTATTTAAA | 0.474 |  | 
ACAGACGAAGGAGCCGCAAAGAAATTATTAAGGGATGAATAATCCCTCAATATATATATCTCTCACTTATTTAAA | 0.766 |  | 
ACAGACGAAGGAGCCGCAAAGAAATTATTAAGGGATGAATAATCCCTCAATTTAAATATCTCTCACTTATTTAAA | 0.153 |  | 
ACAGACGAAGGAGCCGCAAAGAAATTATTAAGGGATGAATAATCCCTCAGTATAAATATCTCTCACTTATTTAAA | 0.215 |  | 
ACAGACGAAGGAGCCGCAAAGAAATTATTAAGGGATGAATAATCCCTCATTATAAATATCTCTCACTTATTTAAA | 0.514 | 0.197 | 
ACAGACGAAGGAGCCGCAAAGAAATTATTAAGGGATGAATAATCCCTCCATATAAATATCTCTCACTTATTTAAA | 0.338 |  | 
ACAGACGAAGGAGCCGCAAAGAAATTATTAAGGGATGAATAATCCCTCGATATAAATATCTCTCACTTATTTAAA | 0.395 |  | 
ACAGACGAAGGAGCCGCAAAGAAATTATTAAGGGATGAATAATCCCTCTATATAAATATCTCTCACTTATTTAAA | 0.319 | 0.418 | 

Sequence | cleaved RNA product abundance [1] | cleaved RNA product abundance [2] | cleaved RNA product abundance (experiment (reporter, strain, medium): exp 6: tetM reporter, strain 168)
ACAGACGAAGGAGCCGCAAAGAAATTATTAAGGGATGAATAATCCCTGAATATAAATATCTCTCACTTATTTAAA | 0.548 | 0.49 | 
ACAGACGAAGGAGCCGCAAAGAAATTATTAAGGGATGAATAATCCCTTAATATAAATATCTCTCACTTATTTAAA | 0.451 |  | 
ACAGACGAAGGAGCCGCAAAGAAATTATTAAGGGATGAATAATCCGTCAATATAAATATCTCTCACTTATTTAAA | 0.261 | 0.192 | 
ACAGACGAAGGAGCCGCAAAGAAATTATTAAGGGATGAATAATCCTTCAATATAAATATCTCTCACTTATTTAAA | 0.674 |  | 
ACAGACGAAGGAGCCGCAAAGAAATTATTAAGGGATGAATAATCGCTCAATATAAATATCTCTCACTTATTTAAA | 0.101 |  | 
ACAGACGAAGGAGCCGCAAAGAAATTATTAAGGGATGAATAATCTCTCAATATAAATATCTCTCACTTATTTAAA | 0.476 |  | 
ACAGACGAAGGAGCCGCAAAGAAATTATTAAGGGATGAATAATGCCTCAATATAAATATCTCTCACTTATTTAAA | 0.132 | 0.172 | 
ACAGACGAAGGAGCCGCAAAGAAATTATTAAGGGATGAATAATTCCTCAATATAAATATCTCTCACTTATTTAAA | 0.415 | 0.457 | 
ACAGACGAAGGAGCCGCAAAGAAATTATTAAGGGATGAATACTCCCTCAATATAAATATCTCTCACTTATTTAAA |  | 0.416 | 
ACAGACGAAGGAGCCGCAAAGAAATTATTAAGGGATGAATAGTCCCTCAATATAAATATCTCTCACTTATTTAAA | 0.937 |  | 
ACAGACGAAGGAGCCGCAAAGAAATTATTAAGGGATGAATATTCCCTCAATATAAATATCTCTCACTTATTTAAA | 0.595 |  | 
ACAGACGAAGGAGCCGCAAAGAAATTATTAAGGGATGAATGATCCCTCAATATAAATATCTCTCACTTATTTAAA | 0.661 |  | 
ACAGACGAAGGAGCCGCAAAGAAATTATTAAGGGATGAATTATCCCTCAATATAAATATCTCTCACTTATTTAAA | 0.711 | 0.539 | 
ACAGACGAAGGAGCCGCAAAGAAATTATTAAGGGATGACTAATCCCTCAATATAAATATCTCTCACTTATTTAAA | 0.573 | 0.453 | 
ACAGACGAAGGAGCCGCAAAGAAATTATTAAGGGATGACTAATCTCTCAATATAAATATCTCTCACTTATTTAAA | 0.582 |  | 
ACAGACGAAGGAGCCGCAAAGAAATTATTAAGGGATGATTAATCCCTCAATATAAATATCTCTCACTTATTTAAA | 0.599 | 0.816 | 
ACAGACGAAGGAGCCGCAAAGAAATTATTAAGGGATGGATAATCCCTCAATATAAATATCTCTCACTTATTTAAA | 0.62 |  | 
ACAGACGAAGGAGCCGCAAAGAAATTATTAAGGGATGTATAATCCCTCAATATAAATATCTCTCACTTATTTAAA | 0.789 | 0.711 | 
ACAGACGAAGGAGCCGCAAAGAAATTATTAAGGGATTAATAATCCCTCAATATAAATATCTCTCACTTATTTAAA | 0.912 | 0.978 | 
ACAGACGAAGGAGCCGCAAAGAAATTATTAAGGGCTGAATAATCCCTCAATATAAATATCTCTCACTTATTTAAA | 0.498 |  | 
ACAGACGAAGGAGCCGCAAAGAAATTATTAAGGGGTGAATAATCCCTCAATATAAATATCTCTCACTTATTTAAA | 0.734 | 0.541 | 
ACAGACGAAGGAGCCGCAAAGAAATTATTAAGGGTTGAATAATCCCTCAATATAAATATCTCTCACTTATTTAAA | 0.365 |  | 
ACAGACGAAGGAGCCGCAAAGAAATTATTAAGGTATGAATAATCCCTCAATATAAATATCTCTCACTTATTTAAA | 0.105 | 0.122 | 
ACAGACGAAGGAGCCGCAAAGAAATTATTAAGTGATGAATAATCCCTCAAAATAAATATCTCTCACTTATTTAAA | 0.0994 | 0.117 | 
ACAGACGAAGGAGCCGCAAAGAAATTATTAAGTGATGAATAATCCCTCAATATAAATATCTCTCACTTATTTAAA | 0.125 | 0.107 | 
